Measured values: US20070259336A1

Tests used:
[1] = target: serum 24, breast cancer patient (Table 1) (human); assay: 5 ug MBP competitor preincubated with serum 24, then IP of Ruc-β-catenin-Δ1
[2] = target: serum 35, colon cancer patient (Table 1) (human); assay: 5 ug MBP competitor preincubated with serum 35, then IP of Ruc-K-Ras
[3] = target: serum 25, breast cancer patient (Table 1) (human); assay: 5 ug MBP competitor preincubated with serum 25, then IP of Ruc-c-Myc
[4] = target: serum 34, colon cancer patient (Table 1) (human); assay: 5 ug MBP competitor preincubated with serum 34, then IP of Ruc-p53
[5] = target: serum 22, breast cancer patient (Table 1) (human); assay: 5 ug MBP competitor preincubated with serum 22, then IP of Ruc-Smad4
[6] = target: serum 27, breast cancer patient (Table 1) (human); assay: 5 ug MBP competitor preincubated with serum 27, then IP of Ruc-K-Ras
[7] = target: serum 32, colon cancer patient (Table 1) (human); assay: 5 ug MBP competitor preincubated with serum 32, then IP of Ruc-K-Ras
[8] = target: serum 34, colon cancer patient (Table 1) (human); assay: 5 ug MBP competitor preincubated with serum 34, then IP of Ruc-K-Ras
[9] = target: serum 12, head and neck cancer patient (Table 1) (human); assay: 5 ug MBP competitor preincubated with serum 12, then IP of Ruc-p53
[10] = target: serum 15, head and neck cancer patient (Table 1) (human); assay: 5 ug MBP competitor preincubated with serum 15, then IP of Ruc-p53
[11] = target: serum 33, colon cancer patient (Table 1) (human); assay: 5 ug MBP competitor preincubated with serum 33, then IP of Ruc-p53
[12] = target: serum 36, colon cancer patient (Table 1) (human); assay: 5 ug MBP competitor preincubated with serum 36, then IP of Ruc-Smad4

B1: MBP fusion containing the SPEC2 cDNA (protein, UniProt Q9NRR3 1-84, looked up, not shown: large carriers)
chain: MSEFWLCFNCCIAEQPQPKRRRRIDRSMIGEPTNFVHTAHVGSGDLFSGMNSVSSIQNQMQSKGGYGGGMPANVQMQLVDTKAG
percent competition [1]: 23%
percent competition [2]: 16%
percent competition [3]: 0%
percent competition [4]: 11%
percent competition [5]: 4%
percent competition [6]: 5%
percent competition [7]: 25%
percent competition [8]: 4%
percent competition [9]: 21%
percent competition [10]: 20%
percent competition [11]: 7%
percent competition [12]: 0%
